Assay results taken from patent CN117466995A (YIDAO BIOTECHNOLOGY SUZHOU CO LTD, dated 2024).

Legend:
Experiment in all cases: direct ELISA on coated VLP antigens
HPV 18 VLP抗原 = target: T1, HPV 18 VLP抗原 (HPV 18, UniProt P06794 62-568)
T1 sequence: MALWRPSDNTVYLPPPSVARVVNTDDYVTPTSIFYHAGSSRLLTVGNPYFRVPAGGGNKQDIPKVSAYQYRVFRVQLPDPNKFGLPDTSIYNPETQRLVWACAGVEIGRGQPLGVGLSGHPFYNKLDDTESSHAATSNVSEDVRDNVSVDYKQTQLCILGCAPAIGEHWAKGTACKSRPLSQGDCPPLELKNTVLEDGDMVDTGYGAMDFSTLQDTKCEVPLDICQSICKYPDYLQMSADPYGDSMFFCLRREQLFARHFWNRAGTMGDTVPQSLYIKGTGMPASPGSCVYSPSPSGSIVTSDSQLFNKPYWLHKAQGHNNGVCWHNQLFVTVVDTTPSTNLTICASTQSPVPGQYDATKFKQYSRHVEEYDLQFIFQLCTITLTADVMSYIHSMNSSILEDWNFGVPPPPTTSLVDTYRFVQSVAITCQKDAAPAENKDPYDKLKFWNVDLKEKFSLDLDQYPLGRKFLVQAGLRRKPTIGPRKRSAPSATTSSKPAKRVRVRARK

HPV11 VLP抗原 = target: T2, HPV11 VLP抗原 (HPV11, UniProt P04012 1-501)
T2 sequence: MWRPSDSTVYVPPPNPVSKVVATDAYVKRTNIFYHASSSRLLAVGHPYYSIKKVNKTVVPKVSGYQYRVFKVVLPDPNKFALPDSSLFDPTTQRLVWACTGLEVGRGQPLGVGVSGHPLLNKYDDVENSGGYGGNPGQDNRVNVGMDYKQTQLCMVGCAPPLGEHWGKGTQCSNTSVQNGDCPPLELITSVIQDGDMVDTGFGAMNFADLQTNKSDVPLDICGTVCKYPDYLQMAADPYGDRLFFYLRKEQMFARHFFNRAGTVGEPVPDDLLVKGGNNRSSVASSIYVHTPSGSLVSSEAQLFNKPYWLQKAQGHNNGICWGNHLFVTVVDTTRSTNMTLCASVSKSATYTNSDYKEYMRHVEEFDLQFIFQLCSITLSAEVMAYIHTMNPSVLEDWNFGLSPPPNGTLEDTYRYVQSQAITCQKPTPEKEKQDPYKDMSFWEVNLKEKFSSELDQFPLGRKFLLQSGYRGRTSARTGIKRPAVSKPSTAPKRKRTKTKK

HPV 52 VLP抗原 = target: T3, HPV 52 VLP抗原 (HPV 52, UniProt Q05138 27-529)
T3 sequence: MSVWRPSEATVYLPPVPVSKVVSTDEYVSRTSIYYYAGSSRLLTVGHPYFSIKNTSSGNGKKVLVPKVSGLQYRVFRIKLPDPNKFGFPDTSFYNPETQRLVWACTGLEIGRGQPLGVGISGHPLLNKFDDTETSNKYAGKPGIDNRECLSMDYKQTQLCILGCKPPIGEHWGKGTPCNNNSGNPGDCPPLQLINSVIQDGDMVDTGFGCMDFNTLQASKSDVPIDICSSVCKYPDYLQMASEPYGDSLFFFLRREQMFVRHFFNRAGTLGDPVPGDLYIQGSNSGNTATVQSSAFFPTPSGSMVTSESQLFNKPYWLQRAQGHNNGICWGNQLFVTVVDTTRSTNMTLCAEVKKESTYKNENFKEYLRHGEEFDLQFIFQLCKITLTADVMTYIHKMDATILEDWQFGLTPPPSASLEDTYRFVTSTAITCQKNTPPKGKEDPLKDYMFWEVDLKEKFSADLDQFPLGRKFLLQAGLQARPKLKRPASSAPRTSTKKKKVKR

HPV 58 VLP抗原 = target: T4, HPV 58 VLP抗原 (HPV 58, UniProt P26535 27-524)
T4 sequence: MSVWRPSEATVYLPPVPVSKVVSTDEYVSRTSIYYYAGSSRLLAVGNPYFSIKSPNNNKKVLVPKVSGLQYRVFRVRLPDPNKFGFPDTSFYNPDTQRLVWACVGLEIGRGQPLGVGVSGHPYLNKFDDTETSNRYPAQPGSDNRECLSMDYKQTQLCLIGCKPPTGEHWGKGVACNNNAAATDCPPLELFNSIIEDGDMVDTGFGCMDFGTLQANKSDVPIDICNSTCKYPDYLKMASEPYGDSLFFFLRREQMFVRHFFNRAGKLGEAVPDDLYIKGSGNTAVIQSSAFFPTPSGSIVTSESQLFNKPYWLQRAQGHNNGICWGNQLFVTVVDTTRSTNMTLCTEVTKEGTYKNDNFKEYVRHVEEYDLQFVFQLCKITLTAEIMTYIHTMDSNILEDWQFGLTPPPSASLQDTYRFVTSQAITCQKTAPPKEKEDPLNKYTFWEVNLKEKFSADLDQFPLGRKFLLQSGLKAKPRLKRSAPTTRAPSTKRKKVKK

HPV 31 VLP抗原 = target: T5, HPV 31 VLP抗原 (HPV 31, UniProt P17388 1-504)
T5 sequence: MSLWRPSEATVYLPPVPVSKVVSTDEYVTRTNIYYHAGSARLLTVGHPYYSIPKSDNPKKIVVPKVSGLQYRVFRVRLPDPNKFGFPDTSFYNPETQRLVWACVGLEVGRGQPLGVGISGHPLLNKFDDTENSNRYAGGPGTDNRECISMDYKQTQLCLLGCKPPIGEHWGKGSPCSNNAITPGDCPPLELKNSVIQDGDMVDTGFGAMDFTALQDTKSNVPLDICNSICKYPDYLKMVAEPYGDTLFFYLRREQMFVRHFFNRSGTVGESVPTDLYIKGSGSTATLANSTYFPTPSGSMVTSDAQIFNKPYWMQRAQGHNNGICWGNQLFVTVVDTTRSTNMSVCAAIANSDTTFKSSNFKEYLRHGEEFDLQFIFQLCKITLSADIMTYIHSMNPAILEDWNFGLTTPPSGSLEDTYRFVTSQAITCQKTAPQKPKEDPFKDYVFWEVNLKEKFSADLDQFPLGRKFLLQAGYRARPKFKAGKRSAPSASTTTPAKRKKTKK

Measured: binding result

B1: 杂交瘤细胞株7A5(CGMCC NO:45706)分泌的鼠源单克隆抗体 (antibody, V domains shown)
VH: QPGAELVKPGASVKLSCKASGYTFTSYWMHWVKQRPGQGLEWIGEINPSNGHTNYNEKFKSKATLTVDKSSSTAYMQLSSLTSEDSAVYYCAPCYGSSYDYYAMDYWGQGTSVTVSS
VL: DIVLTQSPASLAVSLGQRATISCRASQSVSTSSYSYMHWYQQKPGQPPKLLIKYASNLESGVPARFSGSGSGTDFTLNIHPVEEEDTATYYCQHSWEIPYTFGGGTKLEIK
notes: also called 鼠单抗7A5; 抗体7A5
no binding: all assays above

B2: 杂交瘤细胞株11G1(CGMCC NO:45707)分泌的鼠源单克隆抗体 (antibody, V domains shown)
VH: QVQLQQPGAELVKPGASVKLSCKASGYTFTSYWMHWVKRRPGQGLEWIGEINPSNGLTNYNEKFKSKGTLTVDKSSSAAFMHLSSLTSEDSAVYYCARFHGSDLYAMDYWGQGTSVTVSS
VL: DIVLTQSPASLAVSLGQRATISCRASQSVSTSSYSYMHWYQQKPGQPPKLLIKYASNLESGVPARFSGSGSGTDFTLNIHPVEEEDTATYYCQHSWEIPYTFGGGTKLEIK
notes: also called 鼠单抗11G1; 抗体11G1
no binding: all assays above
